Measured values taken from paper PMC9544093.

Assays:
[1] = target: Bovine γ-globulin (Sigma-Aldrich G5009), a polyvalent antibody mixture of ~80 % IgG, ~10 % IgM and <10 % IgA (bovine); test: fluorescence polarisation; steady-state fluorescence anisotropy; 0.43 uM dansyl-labelled γ-globulin titrated with 0-250 uM unlabelled γ-globulin; neat buffer; 20 °C; pressure not named for this value (ambient implied); fitted to a 1:1 (monomer to dimer) model
[2] = target: Bovine γ-globulin (Sigma-Aldrich G5009), a polyvalent antibody mixture of ~80 % IgG, ~10 % IgM and <10 % IgA (bovine); test: fluorescence polarisation; steady-state fluorescence anisotropy in a high-pressure cell; 0.43 uM dansyl-labelled γ-globulin titrated with 0-250 uM unlabelled γ-globulin; neat buffer; 20 °C; p = 500 bar; fitted to a 1:1 (monomer to dimer) model
[3] = target: Bovine γ-globulin (Sigma-Aldrich G5009), a polyvalent antibody mixture of ~80 % IgG, ~10 % IgM and <10 % IgA (bovine); test: fluorescence polarisation; steady-state fluorescence anisotropy in a high-pressure cell; 0.43 uM dansyl-labelled γ-globulin titrated with 0-250 uM unlabelled γ-globulin; 0.5 M TMAO; 20 °C; p = 500 bar; fitted to a 1:1 (monomer to dimer) model
[4] = target: Bovine γ-globulin (Sigma-Aldrich G5009), a polyvalent antibody mixture of ~80 % IgG, ~10 % IgM and <10 % IgA (bovine); test: fluorescence polarisation; steady-state fluorescence anisotropy; 0.43 uM dansyl-labelled γ-globulin titrated with 0-250 uM unlabelled γ-globulin; 0.5 M TMAO; 20 °C; pressure not named for this value (ambient implied); fitted to a 1:1 (monomer to dimer) model

Ka [1]: 882 M⁻¹
Ka [2]: 1530 M⁻¹
Ka [3]: 997 M⁻¹
Ka [4]: 592 M⁻¹
Substance: Bovine γ-globulin (Sigma-Aldrich G5009), a polyvalent antibody mixture of ~80 % IgG, ~10 % IgM and <10 % IgA
